The text below walks through data of patent publication US20180066029A1.

Assay in all cases: CIDOP with next-generation sequencing, recovery of peaks
In experiment [1] the target is nucleosomes having only H3K36me3.
The target of experiment [2] is nucleosomes having neither H3K9me3 nor H3K36me3.
Experiment [3] addresses nucleosomes having only H3K9me3.
Experiment [4] deals with nucleosomes having both H3K9me3 and H3K36me3 (H3K36me2/3).

As to “artificial protein PM (PWWP domain of Dnmt3a, naturally occurring linker of 21 amino acids, chromodomain of MPP8, N-terminal GST tag) (designed binder)”, the percent of genome regions of this state isolated by PM in experiment [1] was found to be 6.66%; in experiment [2], 0.04%; in experiment [3] it was 6.2%. The percent of genome regions of this state detected by PM in experiment [4] is 80.9%.
